From patent US20250051471A1, “Anti-Abcb1 Antibodies” (WILLIAM ROBERT ARATHOON LIVING TRUST DATED AUGUST 29, 2016, priority 2021, published 2025)

Assays:
Format in all cases: cell-based
[1] = system: cynomolgus Red Blood Cells; assay: Antibody binding to cynomolgus red blood cells by flow cytometry; conditions: percent of RBC in the R3 gate
Procedure: (§1) Antibody binding to human and cynomolgus RBC was assessed by flow cytometry. Normal human and cynomolgus whole blood was obtained from BiolVT. RBC were prepared by centrifugation of whole blood aliquots (0.5 mL) for 5 min at 500xg. Supernatant (plasma) was removed, and RBC washed 3 times in D-PBS+1 mM EDTA. After the final wash, the RBC were resuspended in D-PBS+1 mM EDTA to a final volume of 0.5 mL. Washed RBC were then diluted in flow cytometry buffer (D-PBS+2% FBS+0.05% sodium azide) to 2% and dispensed at […] into 96-well plates. An equivalent volume ([…]) of antibody serially diluted in flow cytometry buffer to 2× final was added to the RBC, and the mixture incubated for 1 hour at room temperature. Next, RBC were washed 3 times with flow cytometry buffer and resuspended in 50 μL of Alexa Fluor®647 conjugated Fab fragment goat anti-human IgG diluted 1:200 in flow cytometry buffer. After 20 minutes at room temperature RBC were washed twice, resuspended in flow cytometry buffer and analyzed using an Invitrogen™ Attune™ NXT flow cytometer. […] Left panel, RBC are gated (R1) based on forward and side scatter. Middle panel, a second gate (R2) is applied to eliminate any remaining doublets or aggregates. Right panel, fluorescence of the R2 gated cells is assessed and a final gate (R3) is set using unstained RBC. Cells falling in the R3 gate are defined as “positive” for binding and reported as the percent (of R2 gated cells) that fall in the R3 gate. The results are presented at percent positive which represents the percent of RBC in the R3 gate.

human Red Blood Cells = assay: Antibody binding to human red blood cells by flow cytometry; conditions: percent of RBC in the R3 gate
Procedure: as §1

N6/ADR cells = assay: Cytotoxicity potency assay (antibody titrated, vincristine constant)
Procedure: The relative potency of the samples was evaluated using N6/ADR cells. These cells expressed both ABCB1 and CD47 with the expression of CD47 ˜40-fold higher than ABCB1 as determined by staining with R-phycoerythrin (R-PE) conjugated, commercially available antibodies against ABCB1 (UIC2, Biolegend) and CD47 (CC2C6, Biolegend). This assay also examined the effect of antibodies on vincristine-induced cytotoxicity using the drug-resistant cell line, N6/ADR. However, in this assay format the concentration of vincristine was held constant while the ABCB1 x CD47 BsAbs (or isotype control antibodies) were serially diluted. This assay measured antibody IC50. Lower IC50 meant higher antibody potency.
The potency assay was performed as follows. Cells were plated in 0.05 mL of assay media at 5000 cells/well in white flat bottom 96-well tissue culture plates and incubated overnight at 37° C., 5% CO2. […] An equivalent volume (0.05 mL) diluted antibody/vincristine mixture was transferred to the N6/ADR cells and incubated at 37° C., in 5% CO^2. After 72 hours, plates were removed from the incubator and allowed to equilibrate to room temperature. Viability was assessed using the Promega® CellTiter-Glo® Luminescent Cell Viability Assay according to the manufacturer's recommended protocol.

| Molecule | Binding to cynomolgus Red Blood Cells % Positive Cy744 ([1]; donor Cy744) | Binding to cynomolgus Red Blood Cells % Positive Cy745 ([1]; donor Cy745) | Binding to cynomolgus Red Blood Cells % Positive Cy747 ([1]; donor Cy747) | Binding to human Red Blood Cells % positive D834 (human Red Blood Cells; donor D834) | Binding to human Red Blood Cells % positive D835 (human Red Blood Cells; donor D835) | Binding to human Red Blood Cells % positive D836 (human Red Blood Cells; donor D836) | Binding to human Red Blood Cells % positive D837 (human Red Blood Cells; donor D837) | potency increasing cytotoxicity (N6/ADR cells) |
| --- | --- | --- | --- | --- | --- | --- | --- | --- |
| 15D3hmzhG1 HIR2/Fc/B1.89v1 huL1(KV2) hmz LC: humanized anti-ABCB1 mono arm antibody with B1.89v1 huL1(KV2) light chain (antibody, left off: another chain or arm of the molecule, humanized anti-ABCB1 mono arm antibody with B1.89v1 huL1(KV2) light chain) heavy: EVQLVESGGVVVQPGGSLRLSCAASGFTFSRYTMSWVRQAPGKGLEWVATISSGGGNTYYPDSVKGRFTVSRDNSKNSLYLQMNSLRTEDTALYYCARYGAGDAWFAYWGQGTLVTVSSASTKGPSVFPLAPSSKSTSGGTAALGCLVKDYFPEPVTVSWNSGALTSGVHTFPAVLQSSGLYSLSSVVTVPSSSLGTQTYICNVNHKPSNTKVDKRVEPKSCDKTHTCPPCPAPELLGGPSVFLFPPKPKDTLMISRTPEVTCVVVDVSHEDPEVKFNWYVDGVEVHNAKTKPREEQYNSTYRVVSVLTVLHQDWLNGKEYKCKVSNKALPAPIEKTISKAKGQPREPQVCTLPPSREEMTKNQVSLSCAVKGFYPSDIAVEWESNGQPENNYKTTPPVLDSDGSFVLVSKLTVDKSRWQQGNVFSCSVMHEALHNHYTQKSLSLSPG light: DIVMTQSPLSLPVTPGEPASISCRSSQTIVHSNGNTYLEWYLQKPGQSPQLLIYKVSKRFSGVPDRFSGSGSGTDFTLKISRVEAEDVGVYYCFQASHFPRTFGQGTKLEIKRTVAAPSVFIFPPSDEQLKSGTASVVCLLNNFYPREAKVQWKVDNALQSGNSQESVTEQDSKDSTYSLSSTLTLSKADYEKHKVYACEVTHQGLSSPVTKSFNRGEC | 0.3% | 0.6% | 4.0% | 0.2% | 0.2% | 0.1% | 0.1% | lesser potency than the corresponding bispecific antibodies |
| 15D3 hmz HIR2/Fc/B1VL6/CDR3v2a hmz: humanized anti-ABCB1 mono arm antibody with B1VL6/CDR3v2a light chain (antibody, left off: another chain or arm of the molecule; small tags and cut ends) heavy: EVQLVESGGVVVQPGGSLRLSCAASGFTFSRYTMSWVRQAPGKGLEWVATISSGGGNTYYPDSVKGRFTVSRDNSKNSLYLQMNSLRTEDTALYYCARYGAGDAWFAYWGQGTLVTVSSASTKGPSVFPLAPSSKSTSGGTAALGCLVKDYFPEPVTVSWNSGALTSGVHTFPAVLQSSGLYSLSSVVTVPSSSLGTQTYICNVNHKPSNTKVDKRVEPKSCDKTHTCPPCPAPELLGGPSVFLFPPKPKDTLMISRTPEVTCVVVDVSHEDPEVKFNWYVDGVEVHNAKTKPREEQYNSTYRVVSVLTVLHQDWLNGKEYKCKVSNKALPAPIEKTISKAKGQPREPQVCTLPPSREEMTKNQVSLSCAVKGFYPSDIAVEWESNGQPENNYKTTPPVLDSDGSFVLVSKLTVDKSRWQQGNVFSCSVMHEALHNHYTQKSLSLSPG light: DIVMTQSPLSLPVTPGEPASISCRSSQSLVHSNGNTYLEWYLQKPGQSPQLLIYKVSNRFSGVPDRFSGSGSGTDFTLKISRVEAEDVGVYYCFQGSHFPRTFGQGTKLEIKRTVAAPSVFIFPPSDEQLKSGTASVVCLLNNFYPREAKVQWKVDNALQSGNSQESVTEQDSKDSTYSLSSTLTLSKADYEKHKVYACEVTHQGLSSPVTKSFNRGEC |  |  |  |  |  |  |  | lesser potency than the corresponding bispecific antibodies |
